The subject of data set [1] is Human umbilical vascular endothelial cells (HUVECs). Nature of the data set: HUVEC proliferation assay (3H-thymidine). Format: cell-based. The note with it: 3H-thymidine incorporation. As for the experimental part: Human umbilical vascular endothelial cells (HUVECs) were seeded in 96-well tissue culture plates at a concentration of 5×10^4 cells/ml. After attachment, cells were quiesced in EMG-2 medium lacking EGF, VEGF and FGF-2 (Cambrex, East Rutherford, N.J.) for 24 hrs. Quiescent media in wells were aspirated and replaced with EMG-2 that contained all the growth factors mentioned above. Antibodies were serially diluted and added to the wells. Cells were incubated at 37° C. with 5% CO2 in a Muaire™ DH autoflow incubator (Cryostar Industries, Inc., White Hall, Pa.) for 48-72 hrs. Cell growth was determined by monitoring ^3H-thymidine incorporation using a 1450 Micorbeta liquid scintillation counter (Perkin Elmer, Gaithersburg, Md.).

The target in data set [2] is T1, FGFR-2b (Homo sapiens, UniProt P21802).
T1 construct: purchased R&D Systems
T1 sequence (P21802 22-822 isoform P21802-3 limits assumed): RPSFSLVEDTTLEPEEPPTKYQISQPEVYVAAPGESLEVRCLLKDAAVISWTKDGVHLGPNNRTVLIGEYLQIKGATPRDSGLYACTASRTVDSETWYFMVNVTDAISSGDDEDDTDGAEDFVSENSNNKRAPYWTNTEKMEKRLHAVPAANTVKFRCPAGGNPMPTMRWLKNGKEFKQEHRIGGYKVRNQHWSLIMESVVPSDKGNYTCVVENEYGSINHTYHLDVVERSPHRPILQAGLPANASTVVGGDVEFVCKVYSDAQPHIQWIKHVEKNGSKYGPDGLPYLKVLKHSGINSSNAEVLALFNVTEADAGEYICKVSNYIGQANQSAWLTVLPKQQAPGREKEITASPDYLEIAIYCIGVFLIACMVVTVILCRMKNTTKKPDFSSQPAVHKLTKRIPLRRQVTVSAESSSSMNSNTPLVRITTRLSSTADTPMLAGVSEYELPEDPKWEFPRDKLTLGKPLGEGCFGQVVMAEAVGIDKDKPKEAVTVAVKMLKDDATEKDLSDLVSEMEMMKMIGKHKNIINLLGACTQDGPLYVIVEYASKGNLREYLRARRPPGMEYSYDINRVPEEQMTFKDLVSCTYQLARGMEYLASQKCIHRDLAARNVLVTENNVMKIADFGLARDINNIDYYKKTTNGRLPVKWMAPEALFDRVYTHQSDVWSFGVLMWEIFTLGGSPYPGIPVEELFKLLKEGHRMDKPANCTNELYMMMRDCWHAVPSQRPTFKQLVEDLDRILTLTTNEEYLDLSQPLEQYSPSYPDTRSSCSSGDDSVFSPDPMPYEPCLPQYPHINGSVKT
Nature of the data set: BiaCore binding kinetics. The note with it: BiaCore kinetic analysis.

Data set [3] can be described thus: Repeated-dose study in female athymic nude mice: body weight, food intake, rearing, blood glucose. Format: in vivo. As for the experimental part:
Female athymic nude mice (Cr1:NU/NU-nuBR, Charles River Laboratories, Wilmington, Mass.) were housed 4-5 per cage. Mice were given autoclaved food (Lab Diet #5001, PMI Feeds Inc., St. Louis, Mo.) and water ad libitum. All animal use in this study was conducted in compliance with approved institutional animal care and use protocols, and according to NIH guidelines (Guide for the Care and Use of Laboratory Animals, NIH publication no. 86-23, 1985).
In one assay, mice were injected intraperitoneally (i.p.) with FR1-H7 at 0.19, 1.9, and 19 mg/kg body weight (n=5 per group). In another assay, mice were injected subcutaneously (s.c.) with the antibody, at 0.4, 4, and 40 mg/kg body weight. In control arms, mice were treated with saline i.p. or s.c. In addition, one group of mice was left untreated (n=4). All treatments were given at a volume of 10 μl/g body weight in Saline. Treatments were started on a Wednesday (Day 0) with additional treatments on the following Friday, Monday, Wednesday, and Friday. After this 9-day treatment period mice received no additional treatments.
Alternatively, female athymic nude mice were injected (i.p.) with saline, 2 mg/kg, or 20 mg/kg FR1-A1 on a Monday (Day 0) and Wednesday. Body weights were measured before the first injection, and on Day 2 and Day 5. Food intake per group was measured 2 days after the first injection.
The body weights of all animals were measured 3 times/week. Food consumption, behavior, and serum glucose were evaluated as follows. Food Intake Measurement: Prior to the treatment on Day 2 mice were placed in a new cage and the weight of the food container in the cage top was weighed. Prior to the treatment on Day 5 the weight of the food container was measured again. The difference in the Day 2 to Day 5 food container weight was divided by the number of mice per cage and the number of days between the measurements to give a food intake per mouse per 24 hrs. Activity Measurement: On Day 12, 3 days after the final treatment, mice were placed individually into a new cage and the number of rearings was counted over a 1 min period. Blood Glucose Measurement On Day 16, 7 days after the final treatment, non-fasted blood glucose was measured in blood collected from the tip of the tail using an Ascensia Elite XL blood glucose meter (glucose oxidase method, Bayer, Pittsburg, Pa.).

Data set [4] deals with T2, FGFR-3c (Homo sapiens, UniProt P22607).
T2 construct: purchased R&D Systems
T2 sequence (P22607 23-806): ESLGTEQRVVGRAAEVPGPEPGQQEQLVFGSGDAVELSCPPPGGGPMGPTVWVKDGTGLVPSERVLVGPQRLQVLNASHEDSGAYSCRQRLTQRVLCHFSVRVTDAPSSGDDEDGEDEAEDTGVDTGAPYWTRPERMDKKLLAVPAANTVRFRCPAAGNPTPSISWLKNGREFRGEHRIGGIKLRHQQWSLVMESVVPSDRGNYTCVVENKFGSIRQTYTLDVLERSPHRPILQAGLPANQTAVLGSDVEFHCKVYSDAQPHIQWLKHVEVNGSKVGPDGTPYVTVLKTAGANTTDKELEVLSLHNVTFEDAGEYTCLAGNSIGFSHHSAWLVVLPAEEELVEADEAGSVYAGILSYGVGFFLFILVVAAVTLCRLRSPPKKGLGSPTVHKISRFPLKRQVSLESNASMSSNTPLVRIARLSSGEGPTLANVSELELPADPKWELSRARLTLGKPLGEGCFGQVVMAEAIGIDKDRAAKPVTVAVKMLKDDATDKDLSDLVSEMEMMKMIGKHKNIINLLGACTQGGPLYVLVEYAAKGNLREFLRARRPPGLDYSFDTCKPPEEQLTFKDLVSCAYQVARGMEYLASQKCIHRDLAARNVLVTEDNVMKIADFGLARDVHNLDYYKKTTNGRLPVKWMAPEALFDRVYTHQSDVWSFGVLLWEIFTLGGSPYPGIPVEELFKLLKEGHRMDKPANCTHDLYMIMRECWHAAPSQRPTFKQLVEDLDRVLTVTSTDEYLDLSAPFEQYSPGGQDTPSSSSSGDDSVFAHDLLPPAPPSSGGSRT
Nature of the data set: BiaCore binding kinetics. Particulars: BiaCore kinetic analysis. Background: SPR reads the build-up and loss of mass on a sensor chip optically.

Data set [5] addresses T3, FGFR-1 (Homo sapiens, UniProt P11362).
T3 construct: expressed in transfected cells; host or cells: L6 (ATCC), pBABE retroviral vector
Put plainly: Phosphorylation assay in FGFR-1 expressing L6 cells (western blot). Format: cell-based. Particulars: anti-phospho-tyrosine western blot. As for the experimental part:
FGFR-1 expressing L6 cells were cultured in 10% FBS, DMEM, in a 24-well tissue culture plate till confluency. Cells were Serum starved in 5 μg/ml heparin, 0.1% FBS, DMEM, for 8-24 hrs. Either FR1-H7 or FR1-A1 was added to the media and allowed to bind with the cell surface receptors at 37° C. for 1 hr. Cells were then stimulated with 20 ng/ml FGFs at 37° C. for 10 min before they were lyzed using ice-cold lysis buffer for 30 min. Cell lysate was subjected to SDS-PAGE followed by western blot. Membranes were probed with anti-phospho-tyrosine antibody (Cell Signaling Technology, Inc., Beverly, Mass.) for detection of phosphorylated FGFR-1 receptors according to supplier's instructions.
The phosphorylation assay for small molecules is essentially the same as the phosphorylation assay described in Examples 7 and 15 and Phosphorylation Assay, except that small molecule compounds was used instead of FGFR-1 antibodies in all occasions. […] Equal amount of cell lysates were applied to each sample lane. Receptor auto-phosphorylation was probed using anti-phospho-tyrosine antibody as described in the original patent.
On the technique in general: Immunoblotting shows a protein as a band on a membrane.

Data set [6] is described as follows: Energy expenditure and body composition in C57 black mice (incl. paired-feeding). Format: in vivo. As for the experimental part: To elucidate the mechanism of the weight-loss induced by FGFR antagonistic antibodies, the effect of FR1-H7 on energy expenditure and body composition of mice was studied. […] A paired-feeding experiment was also conducted which food consumption of control antibody treated animals was restrained to exact that of FR1-H7 treated animals (FIG. 27). […] Moreover, body composition (Day 1 and 5) and energy consumption determined for the two groups were mostly indistinguishable.
This study consisted of two stages. In the first stage, female C57 black mice (Charles River Laboratories, Wilmington, Mass.) were randomized into two groups (n=16) and individually housed in a metabolic cage. Both groups of Mice were given hi-carbohydrate content chow and water ad libitum. […] Body composition was determined using NMR on Day 1 and Day 5. Body weight and food consumption were determined daily. Energy expenditure, ambulatory activities, and oxygen consumption and were monitored continuously. RER were calculated based on energy expenditure and oxygen consumption.
In the second stage, both groups of Mice were given water ad libitum, but only 2 g of hi-carbohydrate content chow each animal per day. The amount of food given was determined in the first stage experiment to be the averaged daily food assumption of those animals one day after being treated with FR1-H7 (10 mg/kg body weight, intraperitonaeally). […]

T3 sequence (P11362 22-822): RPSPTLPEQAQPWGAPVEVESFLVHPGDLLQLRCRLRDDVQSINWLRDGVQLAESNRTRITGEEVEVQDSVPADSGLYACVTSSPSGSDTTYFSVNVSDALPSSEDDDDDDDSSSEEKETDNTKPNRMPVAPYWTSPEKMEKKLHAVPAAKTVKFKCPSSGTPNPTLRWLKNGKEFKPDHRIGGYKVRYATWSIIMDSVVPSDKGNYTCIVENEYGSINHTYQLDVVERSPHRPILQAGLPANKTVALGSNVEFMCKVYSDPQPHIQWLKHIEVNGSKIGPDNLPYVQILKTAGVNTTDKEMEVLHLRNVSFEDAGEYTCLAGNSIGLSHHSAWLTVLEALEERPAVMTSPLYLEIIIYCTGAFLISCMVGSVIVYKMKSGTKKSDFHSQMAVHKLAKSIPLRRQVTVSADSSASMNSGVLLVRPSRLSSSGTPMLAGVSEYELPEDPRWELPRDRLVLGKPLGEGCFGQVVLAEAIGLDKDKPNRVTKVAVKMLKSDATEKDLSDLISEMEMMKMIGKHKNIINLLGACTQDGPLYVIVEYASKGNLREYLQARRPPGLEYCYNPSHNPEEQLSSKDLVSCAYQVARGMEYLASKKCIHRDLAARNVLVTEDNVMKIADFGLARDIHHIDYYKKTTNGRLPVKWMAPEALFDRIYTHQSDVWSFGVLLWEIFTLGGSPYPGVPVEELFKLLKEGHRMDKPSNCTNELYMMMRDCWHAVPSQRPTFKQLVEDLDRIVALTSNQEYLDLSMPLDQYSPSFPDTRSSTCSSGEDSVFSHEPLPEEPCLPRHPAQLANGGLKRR

B1: FR1-H7: human monoclonal antibody from phage Fab library, specific for FGFR-1(IIIb) and/or FGFR-1(IIIc), and/or FGFR-4(IIIc); VH/VL SEQ ID NOS:7, 8 (antibody, listed as Homo sapiens)
VH: MAEVQLVQSGAEVKKPGASVKVSCKVSGYTFTDYYMHWVQQAPGKGLEWMGLVDPEDGETIYAEKFQGRVTITADTSTDTAYMELSSLRSEDTAVYYCARDDYMDVWGKGTLVTVSSASTKGP
VL: LETTLTQSPDTLSLSPGEGATLSCRASQSVSGSALAWYQQKPGQAPRLLIYDASSRATGVPDRFSGSGSGADFSLTISRLEPEDFAVYSCQQYGSSPLTFGPGTKVDVKRTVAAPSVFIFPPSDEQLKSGTASVVCLLNNFYPREAKVQWKVD
As to B1, the “proliferation of HUVECs in vitro” value in data set [1] was “inhibited the proliferation of HUVECs in vitro in a dose-dependant manner”. Also, the Kd in data set [2] and in data set [4] was greater than 1 µM each time. The “moderate weight loss continued one week after treatment was stopped” value in data set [3] (1.9 mg/kg) is given as roughly 0.5 g. In data set [3] (1.9 mg/kg), the “time to complete weight recovery after treatment was stopped” value is 25 days. Also, the “weight loss of the total body weight” value in data set [3] (1.9 mg/kg i.p., within the first 3 treatments) is given as roughly 20%. In addition, the entries for the “lagging time of first significant weight gain after stop of treatments” value in data set [3] (4 mg/kg s.c.), in data set [3] (19 mg/kg i.p.) and in data set [3] (40 mg/kg s.c.) were 14 days, 24 days and 19 days, respectively. Further, in data set [3] (19 mg/kg group), the “unusual weight loss of the total body weight, one animal euthanized” value was roughly 50%. Also, the “reduction of non-fasting blood glucose as fraction of the normal glucose level” value in data set [3] (19 mg/kg i.p. and 40 mg/kg s.c. groups, one week after end of treatment) is “⅓”. For the same molecule, the “exploratory behavior (rearings per min in a novel environment)” value in data set [3] (Day 12) is “not significantly altered”. The “maximal weight loss as fraction of the averaged body weight of the controls” value in data set [3] (dosage higher than 4 mg/kg) was “⅓”. Moreover, the “reduction of non-fasting food intake” value in data set [3] (groups that lost weight, between second and third treatment) is listed as “approximately 35%”. The body weight change result in data set [3] (two lowest dosages 0.19 and 0.4 mg/kg) is reported as “slight weight gains”. Also, the “inhibition of ligand (FGF) mediated receptor phosphorylation” value in data set [5] (antibody) was “significantly inhibits”. Also, the “receptor activation by the antibody by itself” value in data set [5] (no ligand) is “does not activate the receptor”. The “body weight, food intake, muscle and fat mass, energy expenditure and Respiratory Exchange Ratio (RER) compared to the controls” value in data set [6] (10 mg/kg i.p. Day 2 and Day 4, food ad libitum) is “decreases”. In addition, the “weight loss versus pair-fed control antibody treated animals” value in data set [6] (10 mg/kg i.p., paired-feeding, 5-day period) was “identical weight-loss trajectories”.

These data come from patent publication US8263074B2, “Fibroblast growth factor receptor-1 inhibitors and methods of treatment thereof” (ImClone LLC, priority 2003, dated 2012).
